{"source": "paper PMC11299584", "origin": "cited, not measured here", "molecular_target": "ANGPTL3/8 complex (Homo sapiens) (UniProt Q9Y5C1)", "sequence (Q9Y5C1 17-460, chain 1 of 2)": "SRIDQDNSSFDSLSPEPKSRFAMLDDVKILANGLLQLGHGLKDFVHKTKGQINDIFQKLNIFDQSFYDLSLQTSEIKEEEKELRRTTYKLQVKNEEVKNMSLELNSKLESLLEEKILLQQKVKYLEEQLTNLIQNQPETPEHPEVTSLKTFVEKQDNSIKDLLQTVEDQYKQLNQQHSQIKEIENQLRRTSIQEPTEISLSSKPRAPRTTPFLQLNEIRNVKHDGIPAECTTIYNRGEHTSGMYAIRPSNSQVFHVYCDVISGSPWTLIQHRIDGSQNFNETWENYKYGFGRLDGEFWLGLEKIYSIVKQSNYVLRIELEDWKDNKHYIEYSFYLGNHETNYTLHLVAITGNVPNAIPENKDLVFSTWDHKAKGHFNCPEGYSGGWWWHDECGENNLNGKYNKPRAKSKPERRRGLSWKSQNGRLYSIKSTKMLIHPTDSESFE", "sequence (Q6UXH0 22-198, chain 2 of 2, further chain)": "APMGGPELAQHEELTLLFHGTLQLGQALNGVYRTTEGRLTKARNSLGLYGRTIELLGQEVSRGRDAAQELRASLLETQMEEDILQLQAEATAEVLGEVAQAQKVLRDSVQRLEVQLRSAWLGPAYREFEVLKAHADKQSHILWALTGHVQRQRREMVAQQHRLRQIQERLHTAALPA", "assay": "SPR"}
{"substance": "APOA5 (from UniProt Q8C7G5)", "values": [{"measurement": "Kd", "result": 0.53, "unit": "nM"}]}
